Source: patent publication US20180346605A1 (Janssen / Centocor, published 2018)

T1: FcγRIIa soluble extracellular domain, C-terminal His-tag (UniProt P12318 34-217, limits assumed)
T1 construct: extracellular domain
T1 sequence (looked up): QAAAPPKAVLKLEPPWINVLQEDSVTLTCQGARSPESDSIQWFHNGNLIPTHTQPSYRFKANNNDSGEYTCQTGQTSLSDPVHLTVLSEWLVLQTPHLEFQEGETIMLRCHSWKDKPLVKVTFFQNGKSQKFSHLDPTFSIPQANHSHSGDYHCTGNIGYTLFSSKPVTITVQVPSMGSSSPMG

T2: FcγRIIb soluble extracellular domain, C-terminal His-tag (UniProt P31994 43-217, limits assumed)
T2 construct: extracellular domain
T2 sequence (looked up): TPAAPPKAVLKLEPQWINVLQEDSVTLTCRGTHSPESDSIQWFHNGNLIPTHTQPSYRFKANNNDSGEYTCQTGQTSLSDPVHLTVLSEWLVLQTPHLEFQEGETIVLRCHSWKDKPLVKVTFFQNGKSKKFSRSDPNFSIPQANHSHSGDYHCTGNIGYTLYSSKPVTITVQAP


Experiments:
[1] = molecular target: T1, FcγRIIa soluble extracellular domain, …; assay: AlphaScreen competition at pH 7.2: unlabeled competitor antibody titrated against biotinylated wild-type IgG1 (legend: mAb RSV-L) on streptavidin donor beads for His-tagged FcγRIIa (10 ng/mL) on nickel acceptor beads
[2] = molecular target: T3, FcγRIIIa soluble extracellular domain, C-terminal His-tag (UniProt P08637 17-208, limits assumed); assay: AlphaScreen competition at pH 7.2: unlabeled competitor antibody titrated against biotinylated wild-type IgG1 (legend: mAb RSV-L) on streptavidin donor beads for His-tagged FcγRIIIa (200 ng/mL) on nickel acceptor beads
T3 construct: extracellular domain

[3] = molecular target: T2, FcγRIIb soluble extracellular domain, …; assay: AlphaScreen competition at pH 7.2: unlabeled competitor antibody titrated against biotinylated wild-type IgG1 (legend: mAb RSV-L) on streptavidin donor beads for His-tagged FcγRIIb (14 ng/mL) on nickel acceptor beads
[4] = molecular target: T4, His-tagged FcRn (UniProt P55899 24-297; P61769 21-119); assay: AlphaScreen competition at pH 6.0: unlabeled competitor antibody titrated against biotinylated wild-type IgG1 (legend: mAb RSV-L) on streptavidin donor beads for His-tagged FcRn on nickel acceptor beads
T4 construct: also called neonatal Fc receptor

[5] = molecular target: T5, FcγRI soluble extracellular domain, C-terminal His-tag (UniProt P12314 16-292, limits assumed); assay: AlphaScreen competition at pH 7.2: unlabeled competitor antibody titrated against biotinylated IgG1-L234A/L235A (legend: mAb RSV-L) on streptavidin donor beads for His-tagged FcγRI (200 ng/mL) on nickel acceptor beads
T5 construct: extracellular domain

Binder | IC50 (read off the curve) [1] [nM] | IC50 (read off the curve) [2] [nM] | IC50 (read off the curve) [3] [nM] | IC50 (read off the curve) [4] [nM] | IC50 (read off the curve) [5] [nM]
bsRSV-L[Q311R] (bispecific antibody, human IgG1, kappa, also called bispecific anti-RSV/gp120 with asymmetrical F405L Q311R) heavy 1: not shown light 1: EIVLTQSPGTLSLSPGERATFSCRSSHSIRSRRVAWYQHKPGQAPRLVIHGVSNRASGISDRFSGSGSGTDFTLTITRVEPEDFALYYCQVYGASSYTFGQGTKLERKRTVAAPSVFIFPPSDEQLKSGTASVVCLLNNFYPREAKVQWKVDNALQSGNSQESVTEQDSKDSTYSLSSTLTLSKADYEKHKVYACEVTHQGLSSPVTKSFNRGEC heavy 2: not shown light 2: not shown | ~100 | ~80 | ~100 | ~50 | ~4
bsRSV-L[TLQ] (bispecific antibody, human IgG1, kappa, also called bispecific anti-RSV/gp120 with asymmetrical F405L/T307P/L309Q/Q311R) heavy 1: not shown light 1: EIVLTQSPGTLSLSPGERATFSCRSSHSIRSRRVAWYQHKPGQAPRLVIHGVSNRASGISDRFSGSGSGTDFTLTITRVEPEDFALYYCQVYGASSYTFGQGTKLERKRTVAAPSVFIFPPSDEQLKSGTASVVCLLNNFYPREAKVQWKVDNALQSGNSQESVTEQDSKDSTYSLSSTLTLSKADYEKHKVYACEVTHQGLSSPVTKSFNRGEC heavy 2: not shown light 2: not shown | ~100 | ~80 |  | ~100 | ~4
